Among the data in patent US20240102021A1 are increase in cellular cAMP (Epac H187 FRET ratio CFP/YFP, normalized to FSK+IBMX), control MCh-expressing MNT-1 cells and increase in cellular cAMP on αMSH stimulation (Epac H187 FRET, normalized to FSK+IBMX), MNT-1 cells expressing OPN3-MCh values, retold here.

This test concerns the target MC1R (endogenous, MNT-1 cells) (human) (UniProt Q01726). Description: cell-based or functional assay.
Sequence of UniProt Q01726 (Q01726 whole entry): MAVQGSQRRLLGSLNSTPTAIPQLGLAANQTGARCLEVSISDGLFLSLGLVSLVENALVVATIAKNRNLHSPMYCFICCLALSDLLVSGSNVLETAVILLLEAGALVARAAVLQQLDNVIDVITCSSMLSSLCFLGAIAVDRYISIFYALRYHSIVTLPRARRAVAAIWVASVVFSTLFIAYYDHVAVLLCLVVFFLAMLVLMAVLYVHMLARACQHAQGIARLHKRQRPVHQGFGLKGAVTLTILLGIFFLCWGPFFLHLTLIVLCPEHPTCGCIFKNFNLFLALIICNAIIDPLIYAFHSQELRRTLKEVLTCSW

With NDP-αMSH (peptide), the increase in cellular cAMP (Epac H187 FRET ratio CFP/YFP, normalized to FSK+IBMX), control MCh-expressing MNT-1 cells was 50%. As to “OPN3-cMCh (from UniProt Q9H1Y3 1-402) (receptor)”, the increase in cellular cAMP on αMSH stimulation (Epac H187 FRET, normalized to FSK+IBMX), MNT-1 cells expressing OPN3-MCh stood at 10%.
